Source: US20210292396A1

Legend:
Test in all cases: cell-based or functional assay
[1] = molecular target: Env of HIV isolate R1166.C1 (clade AE) (HIV)
[2] = molecular target: HIV Env of isolate 231965.c01 (HIV)
[3] = molecular target: HIV Env of isolate CAP45.G3 (HIV)
[4] = molecular target: Env of HIV isolate Q769.d22 (clade A) (HIV)
[5] = molecular target: Env of HIV isolate ZM55.28a (clade C) (HIV)
[6] = molecular target: HIV Env of isolate ZM215.8 (HIV)
[7] = molecular target: Env of HIV isolate DU422.01 (clade C) (HIV)
[8] = molecular target: HIV Env of isolate ZM249.1 (HIV)
[9] = molecular target: Env of HIV isolate MI369.A5 (clade A) (HIV)
[10] = molecular target: Env of HIV isolate CNE4 (clade B) (HIV)
[11] = molecular target: Env of HIV isolate 3637.v5.c3 (clade C) (HIV)
[12] = molecular target: Env of HIV isolate T33-7 (clade AG) (HIV)
[13] = molecular target: Env of HIV isolate CNE57 (clade B) (HIV)
[14] = molecular target: Env of HIV isolate CH119.10 (clade BC) (HIV)
[15] = molecular target: Env of HIV isolate HXB2.DG (clade B) (HIV)
[16] = molecular target: Env of HIV isolate 3988.25 (clade B) (HIV)
[17] = molecular target: HIV Env of isolate CH070.1 (HIV)
[18] = molecular target: Env of HIV isolate 0815.v3.c3 (clade ACD) (HIV)
[19] = molecular target: Env of HIV isolate 6101.10 (clade B) (HIV)
[20] = molecular target: HIV Env of isolate X2088.c9 (HIV)
[21] = molecular target: Env of HIV isolate C4118.09 (clade AE) (HIV)
[22] = molecular target: HIV Env of isolate 191821.E6.1 (HIV)
[23] = molecular target: Env of HIV isolate Q23.17 (clade A) (HIV)
[24] = molecular target: Env of HIV isolate ZM249.1 (clade C) (HIV)
[25] = molecular target: HIV Env of isolate CNE19 (HIV)
[26] = molecular target: Env of HIV isolate X2278.C2.B6 (clade B) (HIV)
[27] = molecular target: Env of HIV isolate HO86.8 (clade B) (HIV)
[28] = molecular target: HIV Env of isolate ZM135.10a (HIV)
[29] = molecular target: Env of HIV isolate 242-14 (clade AG) (HIV)
[30] = molecular target: Env of HIV isolate AC10.29 (clade B) (HIV)
[31] = molecular target: HIV Env of isolate ZA012.29 (HIV)
[32] = molecular target: Env of HIV isolate C2101.c1 (clade AE) (HIV)
[33] = molecular target: Env of HIV isolate 25711-2.4 (clade C) (HIV)
[34] = molecular target: HIV Env of isolate CH117.4 (HIV)
[35] = molecular target: Env of HIV isolate 6631.v3.c10 (clade C) (HIV)
[36] = molecular target: HIV Env of isolate P1981.C5.3 (HIV)
[37] = molecular target: 208-member cross-clade virus panel
[38] = molecular target: Env of HIV isolate 3326.v4.c3 (clade CD) (HIV)
[39] = molecular target: Env of HIV isolate ZM215.8 (clade C) (HIV)
[40] = molecular target: Env of HIV isolate 269-12 (clade AG) (HIV)
[41] = molecular target: Env of HIV isolate Q259.17 (clade A) (HIV)
[42] = molecular target: Env of HIV isolate P0402.c2.11 (clade G) (HIV)
[43] = molecular target: Env of HIV isolate ADA.DG (clade B) (HIV)

B1: ePGT121.18.17 (ePGT121.18.H17 VH and ePGT121.17.L1 VL) (antibody, V domains shown)
VH: QMQLQESGPGLVKPGETLSLTCSVSGASISSSYWSWLRETPGKGLEWIGYTHHSGDTNYAPSLKSRVTIGLDPSKNQVSLSLTSVTAADTAVYYCARTLHGRRIYGVVAFNEYYTYFYWPTWGKGTQVTVSS
VL: SDISVAPGETVRITCGGESIGSRAVQWYQHRPGQAPRLIIYNNQDRPPGIPERFSGSPDIDFGTTATLTISNVEAGDEATYYCHIWDSRRPTNWELGPGTTLTVL
IC50, pseudovirus neutralization [1]: > 50 µg/mL
IC80, pseudovirus neutralization [2]: > 50 µg/mL
IC80, pseudovirus neutralization [3]: > 50 µg/mL
IC50, pseudovirus neutralization [4]: > 50 µg/mL
IC50, pseudovirus neutralization [5]: 0.012 µg/mL
IC80, pseudovirus neutralization [6]: 0.048 µg/mL
IC50, pseudovirus neutralization [7]: 0.013 µg/mL
IC80, pseudovirus neutralization [8]: 4.25 µg/mL
IC50, pseudovirus neutralization [9]: 0.008 µg/mL
IC50, pseudovirus neutralization [10]: 0.008 µg/mL
IC50, pseudovirus neutralization [11]: > 50 µg/mL
IC50, pseudovirus neutralization [12]: > 50 µg/mL
IC50, pseudovirus neutralization [13]: 0.006 µg/mL
IC50, pseudovirus neutralization [14]: 0.013 µg/mL
IC50, pseudovirus neutralization [15]: 0.016 µg/mL
IC50, pseudovirus neutralization [16]: 0.004 µg/mL
IC80, pseudovirus neutralization [17]: 0.007 µg/mL
IC50, pseudovirus neutralization [18]: 0.005 µg/mL
IC50, pseudovirus neutralization [19]: 0.004 µg/mL
IC80, pseudovirus neutralization [20]: 0.017 µg/mL
IC50, pseudovirus neutralization [21]: > 50 µg/mL
IC80, pseudovirus neutralization [22]: 0.727 µg/mL
IC50, pseudovirus neutralization [23]: 0.006 µg/mL
IC50, pseudovirus neutralization [24]: 0.332 µg/mL
IC80, pseudovirus neutralization [25]: 0.014 µg/mL
IC50, pseudovirus neutralization [26]: 0.003 µg/mL
IC50, pseudovirus neutralization [27]: > 50 µg/mL
IC80, pseudovirus neutralization [28]: 0.78 µg/mL
IC50, pseudovirus neutralization [29]: > 50 µg/mL
IC50, pseudovirus neutralization [30]: 0.004 µg/mL
IC80, pseudovirus neutralization [31]: 0.014 µg/mL
IC50, pseudovirus neutralization [32]: > 50 µg/mL
IC50, pseudovirus neutralization [33]: 0.006 µg/mL
IC80, pseudovirus neutralization [34]: > 50 µg/mL
IC50, pseudovirus neutralization [35]: 0.063 µg/mL
IC80, pseudovirus neutralization [36]: 0.005 µg/mL
% vs Neutralized, IC50 < 0.01 ug/ml [37]: 40%
% vs Neutralized, IC50 < 0.1 ug/ml [37]: 61%
% vs Neutralized, IC50 < 1.0 ug/ml [37]: 69%
% vs Neutralized, IC50 < 10 ug/ml [37]: 74%
% vs Neutralized, IC50 < 50 ug/ml [37]: 76%
% vs Neutralized, IC80 < 0.01 ug/ml [37]: 14.4%
% vs Neutralized, IC80 < 0.1 ug/ml [37]: 53.4%
% vs Neutralized, IC80 < 1.0 ug/ml [37]: 63.5%
% vs Neutralized, IC80 < 10 ug/ml [37]: 67.8%
% vs Neutralized, IC80 < 50 ug/ml [37]: 70.7%
Geometric Mean (IC50) [37]: 0.0202 µg/mL
Geometric Mean IC80 [37]: 0.0443 µg/mL
Median IC50 [37]: 0.009 µg/mL
Median IC80 [37]: 0.02 µg/mL
Total VS Neutralized, IC50 < 0.01 ug/ml (viruses of 208) [37]: 83
Total VS Neutralized, IC50 < 0.1 ug/ml (viruses of 208) [37]: 126
Total VS Neutralized, IC50 < 1.0 ug/ml (viruses of 208) [37]: 143
Total VS Neutralized, IC50 < 10 ug/ml (viruses of 208) [37]: 154
Total VS Neutralized, IC50 < 50 ug/ml (viruses of 208) [37]: 158
Total VS Neutralized, IC80 < 0.01 ug/ml (viruses of 208) [37]: 30
Total VS Neutralized, IC80 < 0.1 ug/ml (viruses of 208) [37]: 111
Total VS Neutralized, IC80 < 1.0 ug/ml (viruses of 208) [37]: 132
Total VS Neutralized, IC80 < 10 ug/ml (viruses of 208) [37]: 141
Total VS Neutralized, IC80 < 50 ug/ml (viruses of 208) [37]: 147
IC50, pseudovirus neutralization [38]: 0.633 µg/mL
IC50, pseudovirus neutralization [39]: 0.016 µg/mL
IC50, pseudovirus neutralization [40]: 0.01 µg/mL
IC50, pseudovirus neutralization [41]: > 50 µg/mL
IC50, pseudovirus neutralization [42]: 0.004 µg/mL
IC50, pseudovirus neutralization [43]: 0.005 µg/mL

B2: ePGT121.15.H2.L1 (antibody, V domains shown)
VH: QMQLQESGPGLVKPGETLSLTCSVSGASISSSYWSWLRETPGKGLEWIGYTHHSGDTNYAPSLKSRVHLGLHPSKNQVSLSLTSVTAADTAVYYCARTLHGRRIYGVVAFNEWFTYFYWEVWGKGTQVTVSS
VL: SDISVAPGETVRISCGGESIGSRAVQWYQHRAGQAPKLIIYNNQDRPPGIPERFSGSPDIDFGTTATLTITNVEAGDEATYYCHIWDSRRPTNWVFGGGTTLTVL
neutralization (Table 6 value) [2]: 0.285
neutralization (Table 6 value) [25]: 0.000602
